“And” between values parts separate entries of the source, which are not always exact repeats. Identical values can stand only once. Residues, ends and D or L forms follow the SMILES beside them. *: point of attachment. FITC = O=C1OC2(c3ccc(O)cc3Oc3cc(O)ccc32)c2ccc(NC(=S)*)cc21
Key:
rabbit calvarial defect [1] = experiment: In vivo bone regeneration capacity of peptide-bound bone graft material in calvarial defect; design: species or system rabbit (NewZealand white rabbit); conditions: peptide bound to bone graft material, 50 mg per 8 mm defect, 2 weeks after graft, histology
Excerpt: Each of the peptides of SEQ ID NO: 35, SEQ ID NO: 36, and SEQ ID NO: 40, prepared in Example 1, was allowed to bind to a bone graft material by the same method as Example 2, which was then grafted into the rabbit calvarial defect. The bone regeneration capacity thereof was confirmed. An 8 mm-diameter circular bone defect was formed in the calvarial region of the anesthetized rabbit (NewZealand white rabbit, specific name: cuniculus). The bone graft material and the peptide-containing bone graft material were grafted into the bone defect with 50 mg for each defect, and the periosteum and skin were doubly sutured. The animal was sacrificed 2 weeks after the graft, and the taken sample was fixed in the formaline solution. The tissue was subjected to embedding to prepare a 20 μm-thick specimen. The prepared specimen was stained with basic fuchsin and toluidine blue to produce a nondemineralized sample. The thus produced sample was observed by an optical microscope, and photographed.

rabbit calvarial defect [2] = experiment: In vivo stability of FITC-labeled peptide on bone mineral grafted into calvarial defect (confocal microscope, blood fluorometer); conditions: 10 mg and 20 mg bone mineral grafted, blood before and 1, 3, 7, 14, 21, 28 days after graft
Description: In order to test in vivo stability, 10 equivalents of fluorescein isothiocyanate (FITC) was allowed to bind to the N-terminus by using triethylamine (1 ml per 1 g of resin) at the time of preparing the peptide of SEQ ID NO: 40. The peptide synthesis was confirmed by measuring the molecular weight thereof through MALDI-TOF.
The peptide of SEQ ID NO: 40, labeled with FITC, was precipitated in the bovine bone mineral (OCS-B, NIBEC). The resultant bone mineral was grafted into the rabbit calvarial defect, and then scarified after 4 weeks. After that, the bone mineral grafted into the calvarial defect was observed by using a confocal microscope (Olympus, Japan). The bone mineral with a binding peptide of SEQ ID NO: 40, labeled with FITC, in 10 mg and 20 mg was grafted into the rabbit calvarial defect. The blood was taken before the graft and 1 day, 3 days, 7 days, 14 days, 21 days, and 28 days after the graft, and then it was determined by using the Fluorometer whether or not the peptide was freed into the systemic blood.

[3] = Peptide release (elution) test from bone graft material in PBS at 37° C., HPLC; assay type: physicochemical, bovine; conditions: for Release of Peptide from Bone Mineral: PBS, 37° C., Lot Nos. 1-3
Description: 1200 mg of the peptide prepared in Example 1 was dissolved in 1 mL of tertiary distilled water, and then 4 g of bovine bone mineral (OCS-B, NIBEC) was added thereto, followed by deposition for 24 hours and then freeze-drying.
4 g of a bone graft material with a binding peptide was input to 20 mL of PBS, and then the peptide release test was conducted at 37° C. After 7 days, 20 Ml of elution solvent that was initially introduced was completely removed, and then 20 Ml of new elution solvent was again added to proceed elution at 37° C. In the above manner, the peptide elution test was conducted for 14 days, 28 days, 56 days, 84 days, and 100 days. After completion of elution, the bone graft material was collected and the peptide content was measured.
3 g of the bone graft material with a binding peptide was precisely weighed, and then made into powder. About 2 g of the powder corresponding to 160 mg of peptide was precisely weighed, which was then input to 40 mL of Solution A as mobile phase, followed by sonication for 1 hour. After that, extraction was conducted while stirring at 37±2° C. for 24 hours, and then the upper layer of the extracted solvent was separated by centrifuging at 3000 rpm for 10 minutes and then filtration with a 0.22 μm millipore filter. 1 mL thereof was taken therefrom, and mixed with 3 mL of Solution A, which was then filtered through a 0.22 μm millipore filter, then the filtrate was used as the test liquid.
The peptide standard product was dried in the desiccator (silica gel) for 5 hours, and then 10 mg thereof was precisely weighed, which was then dissolved by the addition of Solution A as a mobile phase, and then exactly 10 mL thereof was used as a standard liquid.
The test liquid and the standard liquid each 10 μl were tested under the following operating conditions for liquid chromatography, to obtain test liquid and standard liquid peak areas, AT and AS. Amount of peptide (mg)=amount of peptide standard product (mg)×
Meter: Analytical HPLC (Shimadzu, Japan)
Column: Filled with C18-bonded silica gel with 5 μm size (length: […], inner diameter: 4.6 mm)
Mobile phase: 0.1% trifluoroacetic acid/DDW (Solution A) 0.098% trifluoroacetic acid/acetonitrile (Solution B)
Detector: UV absorption spectrometer (measurement wavelength: 230 nm)
Column temperature: Constant at approximately 40° C.

## STLPIPHEFSRE (apatite binding peptide) [SEQ ID NO: 36]
Rabbit calvarial defect [1]
  bone regeneration effect: smallest

## CC[C@H](C)[C@H](NC(=O)[C@H](CC(=O)O)NC(=O)[C@@H]1CCCN1C(=O)[C@H](CCCNC(=N)N)NC(=O)[C@H](CCCNC(=N)N)NC(=O)[C@H](Cc1ccccc1)NC(=O)[C@H](CCCCN)NC(=O)[C@H](CCCCN)NC(=O)[C@H](CO)NC(=O)[C@H](CCCCN)NC(=O)[C@H](CO)NC(=O)[C@H](CCCNC(=N)N)NC(=O)[C@H](CC(C)C)NC(=O)CNC(=O)[C@H](Cc1ccc(O)cc1)NC(=O)[C@H](CCC(=O)O)NC(=O)[C@H](CCCNC(=N)N)NC(=O)[C@H](CO)NC(=O)[C@H](Cc1ccccc1)NC(=O)[C@H](CCC(=O)O)NC(=O)[C@H](Cc1c[nH]cn1)NC(=O)[C@@H]1CCCN1C(=O)[C@@H](NC(=O)[C@@H]1CCCN1C(=O)[C@H](CC(C)C)NC(=O)[C@@H](NC(=O)[C@H](CO)NC(=S)Nc1ccc2c(c1)C(=O)OC21c2ccc(O)cc2Oc2cc(O)ccc21)[C@@H](C)O)[C@@H](C)CC)C(=O)N[C@@H](CCC(N)=O)C(=O)N[C@@H](Cc1ccc(O)cc1)C(=O)N1CCC[C@H]1C(=O)N[C@@H](CC(=O)O)C(=O)N[C@@H](C)C(=O)N[C@H](C(N)=O)[C@@H](C)O [SEQ ID NO: 40, labeled with FITC] ({FITC}-STLPIPHEFSREYGLRSKSKKFRRPDIQYPDAT-NH2)
Rabbit calvarial defect [2]
  RFI values of blood (peptide freed into systemic blood): no differences as compared with the values before the graft

## NH2-STLPIPHEFSRE-YGLRSKSKKFRRPDIQYPDAT-COONH2 (H-STLPIPHEFSREYGLRSKSKKFRRPDIQYPDAT-NH2) [SEQ ID NO: 40]
Rabbit calvarial defect [1]
  bone regeneration effect: remarkably increased bone regeneration capacity as compared with A and B
[3]; after ending the 100 day elution, Lot Nos. 1, 2, 3
  Content of Peptide Remaining in Bone Mineral: 9.2 mg and 9.18 mg and 9.78 mg and 9.19 mg
[3]; day 7
  Release of Peptide from Bone Mineral: 0 mg
[3]; day 14
  Release of Peptide from Bone Mineral: 0 mg
[3]; day 28
  Release of Peptide from Bone Mineral: 0 mg
[3]; day 56
  Release of Peptide from Bone Mineral: 0 mg
[3]; day 84
  Release of Peptide from Bone Mineral: 0 mg
[3]; day 100
  Release of Peptide from Bone Mineral: 0 mg
[3]; elution test for 100 days, Lot No. 1, 2 and 3, retention time 14.196 min
  peak of the peptide in the elution liquid: not observed

## YGLRSKSKKFRRPDIQYPDAT (partial peptide of bone sialoprotein) [SEQ ID NO: 35]
Rabbit calvarial defect [1]
  bone regeneration effect: increased bone regeneration effect as compared with A
